These results are taken from publication PMC7666158.

For experiment [1], the target named is JNK1-dc20 (JNK1 with the C-terminal 20 residues truncated) (human) (UniProt P45983). The experiment in a line: ITC; as a5, with 2 mM EDTA. For orientation: In ITC the heat of successive injections is recorded.
Experiment [2] shares this target. The experiment in a line: fluorescence polarisation; competitive: 50 nM CF-evJIP with JNK1 at ~60–80% complex, titrated with unlabeled competitor; 20 mM Tris pH 8.0, 100 mM NaCl, 0.05% Brij35P, 2 mM TCEP; 384-well plates. For orientation: In fluorescence polarisation assays a small probe gives low polarisation when free and higher when bound to something large.
Experiment [3] deals with pp-JNK1 (activated, phosphorylated JNK1) (human) (UniProt P45983). The experiment in a line: in vitro kinase assay fitted with a kinetic model; 5 nM pp-JNK or pp-p38, MBP-ATF2(19-100) substrate 0.5-100 uM, 5 mM ATP, kinase buffer; p-T71 and p-T69/T71 by quantitative dot-blots; binding rates (kon, koff) and reaction rates fitted simultaneously with the BioNetGen model (PyBioNetFit).

The target of experiment [4] is JNK1-dc20 (JNK1 where the C-terminal 20 residues are truncated) (human) (UniProt P45983). The experiment can be described thus: fluorescence polarisation; competitive titration: JNK1 with CF-evJIP (50 nM; JNK1 at ~60-80% complex formation) titrated with unlabeled MBP-ATF2(19-100) constructs; data fit to a competition binding equation; 20 mM Tris pH 8.0, 100 mM NaCl, 0.05% Brij35P, 2 mM TCEP.

B1: ATF2(19–58)-His6 (MBP removed, for ITC) (domain or fragment)
chain: MSDDKPFLCTAPGCGQRFTNEDHLAVHKHKHEMTLKFGPA
For B1, in experiment [1], the fold decrease in binding with EDTA against no EDTA was 10 fold.

B2: ATF2(19–58) as used in the competitive fluorescence polarisation assay (domain or fragment)
chain: MSDDKPFLCTAPGCGQRFTNEDHLAVHKHKHEMTLKFGPA
In experiment [2], B2 returned a Kd of 5 µM.

B3: MBP-ATF2(19-100)-WT (domain or fragment)
chain: MSDDKPFLCTAPGCGQRFTNEDHLAVHKHKHEMTLKFGPARNDSVIVADQTPTPTRFLKNCEEVGLFNELASPFENEFKKAS
In experiment [3], B3 yielded a Kd of 3.5 µM, a koff of 19.6 s⁻¹ and an association rate constant (kon) of 5.6e+06 M⁻¹ s⁻¹. The Kd in experiment [4] turned out to be 3.5 µM.

B4: MBP-ATF2(19–100) K48E (domain or fragment)
chain: MSDDKPFLCTAPGCGQRFTNEDHLAVHKHEHEMTLKFGPARNDSVIVADQTPTPTRFLKNCEEVGLFNELASPFENEFKKAS
In experiment [2], B4 showed a fold decrease in binding against the wild type of 10 fold.

B5: MBP-ATF2-(19-100)-Q34R (domain or fragment)
chain: MSDDKPFLCTAPGCGRRFTNEDHLAVHKHKHEMTLKFGPARNDSVIVADQTPTPTRFLKNCEEVGLFNELASPFENEFKKAS
On to B5, for which the dissociation constant Kd in experiment [4] came out at 0.87 µM. In other words, the sub-micromolar range.

B6: MBP-ATF2-(19-100)-H47R (domain or fragment)
chain: MSDDKPFLCTAPGCGQRFTNEDHLAVHKRKHEMTLKFGPARNDSVIVADQTPTPTRFLKNCEEVGLFNELASPFENEFKKAS
In experiment [4], B6 came in with a Kd of 0.26 µM.

B7: MBP-ATF2-(19-100)-V44A (domain or fragment)
chain: MSDDKPFLCTAPGCGQRFTNEDHLAAHKHKHEMTLKFGPARNDSVIVADQTPTPTRFLKNCEEVGLFNELASPFENEFKKAS
Molecule B7 had a Kd in experiment [4] of 15.5 µM.

B8: MBP-ATF2-(19-100)-V44E (domain or fragment)
chain: MSDDKPFLCTAPGCGQRFTNEDHLAEHKHKHEMTLKFGPARNDSVIVADQTPTPTRFLKNCEEVGLFNELASPFENEFKKAS
In turn, B8 registered an equilibrium dissociation constant (Kd) in experiment [4] of 56.2 µM. This Kd lies about 3.6-fold higher than the previous one.

B9: MBP-ATF2-(19-100)-H47E (domain or fragment)
chain: MSDDKPFLCTAPGCGQRFTNEDHLAVHKEKHEMTLKFGPARNDSVIVADQTPTPTRFLKNCEEVGLFNELASPFENEFKKAS
In experiment [4], B9 returned a Kd of 39.3 µM.

B10: MBP-ATF2-(19-100)-Q34R/H47R (domain or fragment)
chain: MSDDKPFLCTAPGCGRRFTNEDHLAVHKRKHEMTLKFGPARNDSVIVADQTPTPTRFLKNCEEVGLFNELASPFENEFKKAS
In experiment [4], B10 registered a Kd of 0.05 µM.

By Kd is commonly meant the free concentration of one partner at which half of the binding sites on the other are occupied at equilibrium, for simple one-to-one binding. Higher therefore signals a looser complex. The term koff denotes the rate constant with which the complex falls apart. Usually kon stands for the rate constant with which the complex forms.
